Reference: patent US20050064507

Assays:
[1] = biological target: T1, kinesin 3C peptide LEKRGMLGKRPRRKSSRRKK (SEQ ID NO:133) (not fully specified)
T1 chain: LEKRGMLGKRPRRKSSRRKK

[2] = biological target: T2, cytohesin-2 peptide VDPFYEMLAARKKRISVKKK (SEQ ID NO:150) (not fully specified)
T2 chain: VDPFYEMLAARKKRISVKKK

[3] = biological target: T3, SPTBN4 peptide EGGDRRASGRRK (SEQ ID NO:110) (not fully specified)
T3 chain: EGGDRRASGRRK

[4] = biological target: T4, p164-RhoGEF peptide PRLIRRGSKKRPAR (SEQ ID NO:124) (not fully specified)
T4 chain: PRLIRRGSKKRPAR

[5] = biological target: T5, SDPR peptide EKIKRSSLKKVDSLKK (SEQ ID NO:104) (not fully specified)
T5 chain: EKIKRSSLKKVDSLKK

[6] = biological target: T6, PARIS1 peptide EYLERRASRRRAV (SEQ ID NO:130) (not fully specified)
T6 chain: EYLERRASRRRAV

[7] = biological target: T7, DGKI peptide NRKKKRTSFKRKA (SEQ ID NO:79) (not fully specified)
T7 chain: NRKKKRTSFKRKA

[8] = biological target: T8, beta adducin peptide KKKFRTPSFLKKSKK (SEQ ID NO:135) (not fully specified)
T8 chain: KKKFRTPSFLKKSKK

[9] = biological target: T9, gravin peptide KKFFTQGWAGWRKKTSFRKP (SEQ ID NO:154) (not fully specified)
T9 chain: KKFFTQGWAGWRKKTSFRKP

[10] = biological target: T10, NIK peptide WKGKRRSKARKKRK (SEQ ID NO:131) (not fully specified)
T10 chain: WKGKRRSKARKKRK

[11] = biological target: T11, slp4 peptide TYLLPDKSRQGKRKTSIKRD (SEQ ID NO:153) (not fully specified)
T11 chain: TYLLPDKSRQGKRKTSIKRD

[12] = biological target: T12, pkc-zeta peptide GLPAPGEDKSIYRRGSRRWR (SEQ ID NO:167) (not fully specified)
T12 chain: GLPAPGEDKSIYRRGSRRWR

[13] = biological target: T13, ERN1 peptide ISDFGLAKKLAVGRHSFSRR (SEQ ID NO:145) (not fully specified)
T13 chain: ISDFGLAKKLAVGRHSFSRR

[14] = biological target: T14, AKAP12 peptide AGWRKKTSFRKPKED (SEQ ID NO:99) (not fully specified)
T14 chain: AGWRKKTSFRKPKED

[15] = biological target: T15, ankyrin R peptide DLIEGRKGAQIVKRASLKRG (SEQ ID NO:152) (not fully specified)
T15 chain: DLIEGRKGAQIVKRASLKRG

[16] = biological target: T16, HERG peptide TELEGGFSRQRKRKLSFRRR (SEQ ID NO:140) (not fully specified)
T16 chain: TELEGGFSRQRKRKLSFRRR

[17] = biological target: T17, PARIS1 peptide EYLERRASRRRAV (SEQ ID NO:138) (not fully specified)
T17 chain: EYLERRASRRRAV

[18] = biological target: T18, AF15q14 peptide GFLNEPLSSKSQRRKSLKLK (SEQ ID NO:132) (not fully specified)
T18 chain: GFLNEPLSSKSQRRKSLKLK

[19] = biological target: T19, MAP3K14 peptide WKGKRRSKARKKRK (SEQ ID NO:100) (not fully specified)
T19 chain: WKGKRRSKARKKRK

[20] = biological target: T20, SYTL4 peptide RQGKRKTSIKRDTVNPL (SEQ ID NO:87) (not fully specified)
T20 chain: RQGKRKTSIKRDTVNPL

[21] = biological target: T21, ADD2 peptide KKKFRTPSFLKKSKK (SEQ ID NO:95) (not fully specified)
T21 chain: KKKFRTPSFLKKSKK

[22] = biological target: T22, SMARCA5 peptide MAQIERGEARIQRRISIKKA (SEQ ID NO:166) (not fully specified)
T22 chain: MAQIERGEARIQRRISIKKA

[23] = biological target: T23, MARCKS peptide KKKKKRFSFKKSFKL (SEQ ID NO:80) (not fully specified)
T23 chain: KKKKKRFSFKKSFKL

[24] = biological target: T24, MARCKS peptide KKRFSFKKSFKLSGFSFKKN (SEQ ID NO:119) (not fully specified)
T24 chain: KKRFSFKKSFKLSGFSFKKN

[25] = biological target: T25, titin peptide PFEVVWYKDKRQLRSSKKYK (SEQ ID NO:160) (not fully specified)
T25 chain: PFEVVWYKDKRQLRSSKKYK

[26] = biological target: T26, ARHGAP6 peptide DGQKRKKSLRKKLD (SEQ ID NO:92) (not fully specified)
T26 chain: DGQKRKKSLRKKLD

[27] = biological target: T27, ANK1 peptide AQIVKRASLKRGKQ (SEQ ID NO:90) (not fully specified)
T27 chain: AQIVKRASLKRGKQ

[28] = biological target: T28, NF1 peptide SQVQKQRSAGSFKRNSIKKI (SEQ ID NO:127) (not fully specified)
T28 chain: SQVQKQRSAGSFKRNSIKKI

[29] = biological target: T29, LIMK2 peptide KATTKKRTLRKNDRK (SEQ ID NO:108) (not fully specified)
T29 chain: KATTKKRTLRKNDRK

[30] = biological target: T30, KCNH2 peptide RQRKRKLSFRRRTDKD (SEQ ID NO:86) (not fully specified)
T30 chain: RQRKRKLSFRRRTDKD

[31] = biological target: T31, dag kinase iota peptide NRKKKRTSFKRKA (SEQ ID NO:117) (not fully specified)
T31 chain: NRKKKRTSFKRKA

[32] = biological target: T32, LIMK-2 peptide LRRRSLRRSNSISKSPGP (SEQ ID NO:121) (not fully specified)
T32 chain: LRRRSLRRSNSISKSPGP

B1: PKC-zeta (protein)
chain: MPSRTGPKMEGSGGRVRLKAHYGGDIFITSVDAATTFEELCEEVRDMCRLHQQHPLTLKWVDSEGDPCTVSSQMELEEAFRLARQCRDEGLIIHVFPSTPEQPGLPCPGEDKSIYRRGARRWRKLYRANGHLFQAKRFNRRAYCGQCSERIWGLARQGYRCINCKLLVHKRCHGLVPLTCRKHMDSVMPSQEPPVDDKNEDADLPSEETDGIAYISSSRKHDSIKDDSEDLKPVIDGMDGIKISQGLGLQDFDLIRVIGRGSYAKVLLVRLKKNDQIYAMKVVKKELVHDDEDIDWVQTEKHVFEQASSNPFLVGLHSCFQTTSRLFLVIEYVNGGDLMFHMQRQRKLPEEHARFYAAEICIALNFLHERGIIYRDLKLDNVLLDADGHIKLTDYGMCKEGLGPGDTTSTFCGTPNYIAPEILRGEEYGFSVDWWALGVLMFEMMAGRSPFDIITDNPDMNTEDYLFQVILEKPIRIPRFLSVKASHVLKGFLNKDPKERLGCRPQTGFSDIKSHAFFRSIDWDLLEKKQALPPFQPQITDDYGLDNFDTQFTSEPVQLTPDDEDAIKRIDQSEFEGFEYINPLLLSTEESV
B1 gave an in vitro phosphorylation, 1 uM peptide (% of best substrate) [1] of 27, an in vitro phosphorylation, 10 uM peptide (% of best substrate) [1] of 30 and an in vitro phosphorylation, 1 uM peptide (% of best substrate) [2] of 3. For the same protein, the in vitro phosphorylation, 10 uM peptide (% of best substrate) [2] was 6, the in vitro phosphorylation (% of best substrate) [3] was 3 and the in vitro phosphorylation, 1 uM peptide (% of best substrate) [4] was 45. The in vitro phosphorylation, 10 uM peptide (% of best substrate) [4] was 32, the in vitro phosphorylation (% of best substrate) [5] was 3 and the in vitro phosphorylation, 1 uM peptide (% of best substrate) [6] was 36. The in vitro phosphorylation, 10 uM peptide (% of best substrate) [6] was 39, the in vitro phosphorylation (% of best substrate) [7] was 18 and the in vitro phosphorylation, 1 uM peptide (% of best substrate) [8] was 11. The in vitro phosphorylation, 10 uM peptide (% of best substrate) [8] was 13, the in vitro phosphorylation, 1 uM peptide (% of best substrate) [9] was 27 and the in vitro phosphorylation, 10 uM peptide (% of best substrate) [9] was 23. The in vitro phosphorylation, 1 uM peptide (% of best substrate) [10] was 7, the in vitro phosphorylation, 10 uM peptide (% of best substrate) [10] was 6 and the in vitro phosphorylation, 1 uM peptide (% of best substrate) [11] was 6. It also gave an in vitro phosphorylation, 10 uM peptide (% of best substrate) [11] of 13, an in vitro phosphorylation, 1 uM peptide (% of best substrate) [12] of 5 and an in vitro phosphorylation, 10 uM peptide (% of best substrate) [12] of 37. The in vitro phosphorylation, 1 uM peptide (% of best substrate) [13] was 25, the in vitro phosphorylation, 10 uM peptide (% of best substrate) [13] was 61 and the in vitro phosphorylation (% of best substrate) [14] was 10. It also gave an in vitro phosphorylation, 1 uM peptide (% of best substrate) [15] of 4, an in vitro phosphorylation, 10 uM peptide (% of best substrate) [15] of 9 and an in vitro phosphorylation, 1 uM peptide (% of best substrate) [16] of 24. It also gave an in vitro phosphorylation, 10 uM peptide (% of best substrate) [16] of 49, an in vitro phosphorylation, 1 uM peptide (% of best substrate) [17] of 31 and an in vitro phosphorylation, 10 uM peptide (% of best substrate) [17] of 61. For the same protein, the in vitro phosphorylation, 1 uM peptide (% of best substrate) [18] was 19, the in vitro phosphorylation, 10 uM peptide (% of best substrate) [18] was 61 and the in vitro phosphorylation (% of best substrate) [19] was 8. The in vitro phosphorylation (% of best substrate) [20] was 3, the in vitro phosphorylation (% of best substrate) [21] was 5 and the in vitro phosphorylation, 1 uM peptide (% of best substrate) [22] was 2. The in vitro phosphorylation, 10 uM peptide (% of best substrate) [22] was 9, the in vitro phosphorylation (% of best substrate) [23] was 16 and the in vitro phosphorylation, 1 uM peptide (% of best substrate) [24] was 20. For the same protein, the in vitro phosphorylation, 10 uM peptide (% of best substrate) [24] was 20, the in vitro phosphorylation, 1 uM peptide (% of best substrate) [25] was 15 and the in vitro phosphorylation, 10 uM peptide (% of best substrate) [25] was 57. The in vitro phosphorylation (% of best substrate) [26] was 2, the in vitro phosphorylation (% of best substrate) [27] was 5 and the in vitro phosphorylation, 1 uM peptide (% of best substrate) [28] was 19. The in vitro phosphorylation, 10 uM peptide (% of best substrate) [28] was 19, the in vitro phosphorylation (% of best substrate) [29] was 1 and the in vitro phosphorylation (% of best substrate) [30] was 28. The in vitro phosphorylation, 1 uM peptide (% of best substrate) [31] was 20, the in vitro phosphorylation, 10 uM peptide (% of best substrate) [31] was 11 and the in vitro phosphorylation, 1 uM peptide (% of best substrate) [32] was 60. For the same protein, the in vitro phosphorylation, 10 uM peptide (% of best substrate) [32] was 56.
